Paper PMC6212828
pKd: −log10 of the molar value.

Columns and labels:
Fur (Bacillus subtilis) [1] = target: T1, Fur (Bacillus subtilis) (UniProt P54574); assay: EMSA; details: EMSA with 1 mM MnCl2; ~1 fmol 32P-labelled probe (B, C) or ~180 ng DNA with ethidium bromide stain, 5% native PAGE (A); remaining buffer, pH and temperature …
T1 sequence: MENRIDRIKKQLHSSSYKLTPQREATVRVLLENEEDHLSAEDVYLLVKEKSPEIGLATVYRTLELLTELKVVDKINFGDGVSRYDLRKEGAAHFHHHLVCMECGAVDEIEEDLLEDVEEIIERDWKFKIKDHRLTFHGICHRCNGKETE

Fur (Bacillus subtilis) [2] = assay: EMSA; details: EMSA with 1 mM MnCl2; ~1 fmol 32P-labelled probe (B, C) or ~180 ng DNA with ethidium bromide stain, 5% native PAGE (A); remaining buffer, pH and temperature …

“TAGACCTTTGTCCTGCACAGAGGTCTTTTTTTGTTACAGTTTTATAGTACTTTTATTTCATTTTCGTAAAATGTAACAAAATTACTTGACGTAAACAAGTTATGTATATATACTAGCTTACATTAAGTAAGTGATAACATTTATCAAGGAGGATAAAATGAATAAATCATTTGAAATTGGCACATTACTTTTAAGAG (double strand) [catD promoter probe (-121 to +76)]” was tested, and the pKd (Fur (Bacillus subtilis) [1]) was 6.15.
“catD ORF 218-bp HindIII fragment (+169 to +386)” showed a binding (Fur (Bacillus subtilis) [2]) greater than 3 µM.
catD ORF probe (+137 to +278) showed a binding (Fur (Bacillus subtilis) [2]) greater than 2 µM.
Substance “catD promoter 323-bp HindIII fragment (-155 to +168)” has a K half (Fur (Bacillus subtilis) [2]) of 500 nM.
catD promoter probe (-121 to +76) gave a pKd (Fur (Bacillus subtilis) [2]) of 6.15.
